{"source": "paper PMC7704496", "about": "“RNA and DNA Binding Epitopes of the Cold Shock Protein TmCsp from the Hyperthermophile Thermotoga maritima”", "binders": {"B1": {"name": "(dG)7 (ssDNA)", "DNA": "GGGGGGG"}, "B2": {"name": "(rU)7 (ssRNA)", "RNA": "UUUUUUU"}, "B3": {"name": "(dT)7 (ssDNA)", "DNA": "TTTTTTT"}, "B4": {"name": "(dA)7 (ssDNA)", "DNA": "AAAAAAA"}, "B5": {"name": "(dC)7 (ssDNA)", "DNA": "CCCCCCC"}}, "data": [{"target": "T1, TmCsp (cold shock protein) (Thermotoga maritima, UniProt O54310 1-66)", "T1 sequence (O54310 whole entry)": "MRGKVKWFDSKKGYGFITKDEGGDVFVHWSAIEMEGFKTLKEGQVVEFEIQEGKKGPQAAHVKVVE", "test": "Trp fluorescence quenching; 303 K; EMSA: 50 mM NaH2PO4 pH 6.5, 20 mM NaCl, 0.2 mM EDTA, room temperature 1 h, 20% gel in 1xTBE at 4 C; NMR: 50 mM sodium phosphate pH 6.5, 20 mM NaCl, 0.2 mM EDTA", "details": "protein: recombinant; tags: none stated; chain copies: 2; label: none (5'-fluorescein in EMSA); single strand", "units": {"Kd": "nM"}, "values": [{"binder": "B1", "Kd": "3400 ± 100"}, {"binder": "B2", "Kd": "10.8 ± 0.8"}, {"binder": "B3", "Kd": "4 ± 0.2"}, {"binder": "B4", "Kd": "5000 ± 200"}, {"binder": "B5", "Kd": "2800 ± 100"}]}, {"target": "T1, TmCsp (cold shock protein)", "test": "Trp fluorescence quenching; 323 K; EMSA: 50 mM NaH2PO4 pH 6.5, 20 mM NaCl, 0.2 mM EDTA, room temperature 1 h, 20% gel in 1xTBE at 4 C; NMR: 50 mM sodium phosphate pH 6.5, 20 mM NaCl, 0.2 mM EDTA", "details": "protein: recombinant; tags: none stated; chain copies: 2; label: none (5'-fluorescein in EMSA); single strand", "units": {"Kd": "nM"}, "values": [{"binder": "B2", "Kd": "1520 ± 10"}, {"binder": "B3", "Kd": "440 ± 20"}]}, {"target": "T1, TmCsp (cold shock protein)", "test": "Trp fluorescence quenching; 343 K; EMSA: 50 mM NaH2PO4 pH 6.5, 20 mM NaCl, 0.2 mM EDTA, room temperature 1 h, 20% gel in 1xTBE at 4 C; NMR: 50 mM sodium phosphate pH 6.5, 20 mM NaCl, 0.2 mM EDTA", "details": "protein: recombinant; tags: none stated; chain copies: 2; label: none (5'-fluorescein in EMSA); single strand", "units": {"Kd": "nM"}, "values": [{"binder": "B1", "Kd": "5600 ± 100"}, {"binder": "B2", "Kd": "17400 ± 100"}, {"binder": "B3", "Kd": "1600 ± 40"}, {"binder": "B5", "Kd": "11000 ± 100"}]}]}
